Reference: US10106589B2, “Compositions and methods for immunomodulation” (FUNDACIO INSTITUT D'INVESTIGACIO BIOMEDICA DE BELLVITGE …, priority 2011, dated 2018)

Experiments:
human Mo-DCs = experiment: Apoptosis determination (Annexin V / 7-ADD); assay type: cell-based; parameters: key: (−) negligible; (+) low; (++) moderate; (+++) high; settings: viability; treated and LPS-induced DCs
Description: Double staining using with the fluorescent dyes Annexin V (Annexin V-PE Apoptosis Detection Kit I, BD Pharmigen, San Diego, Calif.) and 7-amino-actinomycin D (7-ADD) (BD Pharmigen), and flow cytometry analysis, was employed to assess the viability/apoptosis status of C4BP α7β1-, C4BP α7β0-, recC4BP α6β0-, or Factor H-treated and untreated Mo-DCs.

LPS-matured DCs = experiment: Phenotype stability after re-stimulation with TNF-alpha+IFN-gamma; assay type: cell-based, human; settings: TNF-alpha+IFN-gamma for 24 h without immunomodulatory agents
Experimental: The stability of C4BP(β−)- or FH-treated and LPS-matured DCs was evaluated after further 24 h of induction with pro-inflammatory TNF-alpha (100 U/ml)+IFN-gamma (1000 U/ml) in complete medium without immunomodulatory agents (C4BP(β−) or FH). Median fluorescence intensities (MIF) of DC markers CD83 (A) and CD86 (B) were determined for all DC conditions (with or without TNF-alpha+IFN-gamma). iDC, immature DCs; mDC, untreated LPS-matured DCs; B-5, C4BP(β−)-treated (5 μg/ml) and LPS-matured DCs; WT5, C4BP(β+)-treated (5 μg/ml) and LPS-matured DCs; Rec2, recombinant C4BP(β−)-treated (2 μg/ml) and LPS-matured DCs; FH5, FH-treated (5 μg/ml) and LPS-matured DCs (n=6 per group).
Due to their potential use in the clinical setting, we aimed to study whether an ulterior activation of C4BP(β−)- or FH-treated and LPS-matured DCs would modify the phenotype of these tolerogenic DCs. Therefore, both untreated and C4BP(β−)- or FH-treated DCs were matured with LPS, as previously mentioned, and then re-stimulated without immunomodulatory agents (C4BP(β−) or FH) using TNF-alpha+IFN-gamma for 24 h. […] These tolerogenic C4BP(β−)- or FH-treated DCs were thus phenotypically refractory to secondary stimulation, confirming their stable non-proinflammatory profile.

B1: C4BP (β^−): C4BP isoforms lacking beta chain: C4BP (α7β0) or C4BP (α6β0) (protein, UniProt P04003 49-597, looked up)
C4b-binding protein alpha …: NCGPPPTLSFAAPMDITLTETRFKTGTTLKYTCLPGYVRSHSTQTLTCNSDGEWVYNTFCIYKRCRHPGELRNGQVEIKTDLSFGSQIEFSCSEGFFLIGSTTSRCEVQDRGVGWSHPLPQCEIVKCKPPPDIRNGRHSGEENFYAYGFSVTYSCDPRFSLLGHASISCTVENETIGVWRPSPPTCEKITCRKPDVSHGEMVSGFGPIYNYKDTIVFKCQKGFVLRGSSVIHCDADSKWNPSPPACEPNSCINLPDIPHASWETYPRPTKEDVYVVGTVLRYRCHPGYKPTTDEPTTVICQKNLRWTPYQGCEALCCPEPKLNNGEITQHRKSRPANHCVYFYGDEISFSCHETSRFSAICQGDGTWSPRTPSCGDICNFPPKIAHGHYKQSSSYSFFKEEIIYECDKGYILVGQAKLSCSYSHWSAPAPQCKALCRKPELVNGRLSVDKDQYVEPENVTIQCDSGYGVVGPQSITCSGNRTWYPEVPKCEWETPEGCEQVLTGKRLMQCLPNPEDVKMALEVYKLSLEIEQLELQRDSARQSTLDKEL
Apoptosis after treatment (human Mo-DCs): − | DC phenotype regarding the CD83 and CD86 markers after re-stimulation (LPS-matured DCs): did not induce significant changes | DC viability after re-stimulation (LPS-matured DCs; not shown): did not induce significant changes
